Results published in article PMC2885054.

Columns and labels:
[1] = molecular target: V5-tagged BUNV L protein expressed from a transfected cDNA construct (Bunyamwera virus) (UniProt P20470); experiment: co-IP; as a2, but with a viral transcript co-expressed: N from pT7riboBUNS (also full-length S antigenome RNA), or additionally pT7riboBUNM(+) or minigenome pT7riboBUNMREN(-); bands quantified by phosphorimager and normalised to expression
[2] = molecular target: Bunyamwera virus (BUNV) nucleoprotein (N) (Bunyamwera virus) (UniProt P16495); experiment: as above

Row | Substance | fold more co-precipitated than in cells transfected with pTM1-BUNS [1] | fold more co-precipitated than in cells transfected with pTM1-BUNS [2]
1 | Bunyamwera virus (BUNV) nucleoprotein (N) (from UniProt P16495 1-233) (natural protein) | 5 fold | 
2 | V5-tagged BUNV L protein expressed from a transfected cDNA construct (from UniProt P20470 1-2238) |  | 8 fold
